In patent EP1438388B1:

Legend:
[1] = biological target: putative IBC-1 receptor on G361 melanoma cells, moderately high affinity binding site (human); test: Scatchard analysis of AP-IBC-1 binding to G361 melanoma cells; moderately high affinity slope
[2] = biological target: putative IBC-1 receptor on G361 melanoma cells, lower affinity binding site (human); test: Scatchard analysis of AP-IBC-1 binding to G361 melanoma cells; lower affinity slope
[3] = biological target: putative IBC-1 receptor on G361 melanoma cells, lower affinity binding site (human); test: Scatchard analysis of AP-IBC-1 binding to G361 melanoma cells, bound AP activity; lower affinity slope
[4] = biological target: putative IBC-1 receptor on G361 melanoma cells, moderately high affinity binding site (human); test: Scatchard analysis of AP-IBC-1 binding to G361 melanoma cells, bound AP activity; moderately high affinity slope

binding sites/cell (binding sites/cell) [1]: 17000 | binding sites/cell (binding sites/cell) [2]: 350000 | Kd [3]: 360 nM | Kd [4]: 37.5 nM
Substance: alkaline phosphatase-IBC-1 fusion protein (from UniProt P81605 20-110) (ligand)
